One block for each binder: values may come before it.
What was measured:
Experiment in all cases: cell-based or functional assay
[1] = molecular target: CK1γ3(h) (human, UniProt Q9Y6M4 1-447)
[2] = molecular target: EGFR(T790M)(h) (human, UniProt P00533 696-1210, limits assumed)
[3] = molecular target: PAK5(h) (human, UniProt Q9P286 1-719, limits assumed)
[4] = molecular target: cKit(D816V)(h) (human, UniProt P10721 544-976, limits assumed)
[5] = molecular target: CK1γ2(h) (human, UniProt P78368 1-415)
[6] = molecular target: Ab1(M351T)(h) (human, UniProt P00519 27-1130, limits assumed)
[7] = molecular target: Lck(h) (human, UniProt P06239 1-509, limits assumed)
[8] = molecular target: CLK2(h) (human, UniProt P49760 1-499, limits assumed)
[9] = molecular target: T1, ZAP-70(h) (human, UniProt P43403 1-619, limits assumed)
T1 sequence (looked up): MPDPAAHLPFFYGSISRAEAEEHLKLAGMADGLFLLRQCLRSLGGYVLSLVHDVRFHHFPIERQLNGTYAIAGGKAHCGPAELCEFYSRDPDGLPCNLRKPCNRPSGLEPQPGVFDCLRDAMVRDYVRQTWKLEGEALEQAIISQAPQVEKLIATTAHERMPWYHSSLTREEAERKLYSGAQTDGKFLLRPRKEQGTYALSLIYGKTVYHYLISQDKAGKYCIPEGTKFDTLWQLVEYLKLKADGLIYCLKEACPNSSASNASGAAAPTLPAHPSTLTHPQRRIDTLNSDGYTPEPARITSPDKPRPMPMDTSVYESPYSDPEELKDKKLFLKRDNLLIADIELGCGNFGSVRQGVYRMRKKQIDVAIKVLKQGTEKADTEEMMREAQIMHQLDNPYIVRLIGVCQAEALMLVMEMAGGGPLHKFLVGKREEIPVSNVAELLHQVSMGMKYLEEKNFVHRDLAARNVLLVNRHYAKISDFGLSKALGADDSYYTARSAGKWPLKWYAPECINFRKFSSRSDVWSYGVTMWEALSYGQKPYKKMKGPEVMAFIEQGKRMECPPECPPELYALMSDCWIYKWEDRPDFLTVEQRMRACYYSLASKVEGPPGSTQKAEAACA

[10] = molecular target: cKit(V560G)(h) (human, UniProt P10721 544-976, limits assumed)
[11] = molecular target: Tie2(R849W)(h) (human, UniProt Q02763 771-1124, limits assumed)
[12] = molecular target: CK1γ1(h) (human, UniProt Q9HCP0 1-422)
[13] = molecular target: CK2α2(h) (human, UniProt P19784 1-350)
[14] = molecular target: MAPK1(h) (human, UniProt P28482 1-360, limits assumed)
[15] = molecular target: T2, Bmx(h) (human, UniProt P51813 1-675, limits assumed)
T2 sequence (looked up): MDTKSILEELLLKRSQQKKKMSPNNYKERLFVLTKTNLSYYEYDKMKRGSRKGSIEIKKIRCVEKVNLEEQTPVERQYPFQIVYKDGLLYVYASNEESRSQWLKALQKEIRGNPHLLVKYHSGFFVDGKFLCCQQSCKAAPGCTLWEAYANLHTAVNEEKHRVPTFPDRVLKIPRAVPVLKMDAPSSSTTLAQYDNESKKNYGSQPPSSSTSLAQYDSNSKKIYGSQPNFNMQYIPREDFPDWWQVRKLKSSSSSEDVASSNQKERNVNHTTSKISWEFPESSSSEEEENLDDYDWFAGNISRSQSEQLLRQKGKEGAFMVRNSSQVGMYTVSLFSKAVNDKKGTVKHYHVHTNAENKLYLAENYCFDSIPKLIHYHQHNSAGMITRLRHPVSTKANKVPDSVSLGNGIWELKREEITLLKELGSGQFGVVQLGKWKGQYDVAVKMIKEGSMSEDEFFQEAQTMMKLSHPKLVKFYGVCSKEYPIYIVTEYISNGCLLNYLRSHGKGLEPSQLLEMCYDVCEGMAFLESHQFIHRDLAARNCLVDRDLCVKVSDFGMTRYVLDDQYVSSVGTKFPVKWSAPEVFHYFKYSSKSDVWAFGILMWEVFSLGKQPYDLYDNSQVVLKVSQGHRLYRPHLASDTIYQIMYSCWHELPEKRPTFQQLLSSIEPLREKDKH

[16] = molecular target: GRK5(h) (human, UniProt P34947 1-590)
[17] = molecular target: SRPK2(h) (human, UniProt P78362 1-688, limits assumed)
[18] = molecular target: EGFR(L858R)(h) (human, UniProt P00533 696-1210, limits assumed)
[19] = molecular target: ACK1(h) (human, UniProt Q07912 110-476, limits assumed)
[20] = molecular target: Plk1(h) (human, UniProt P53350 1-603, limits assumed)
[21] = molecular target: PKCη(h) (human, UniProt P24723 1-683)
[22] = molecular target: TLK2(h) (human, UniProt Q86UE8 1-772, limits assumed)
[23] = molecular target: PKA(h) (human)
[24] = molecular target: JAK3(h) (human, UniProt P52333 781-1124, limits assumed)

% activity [1]: 125% | % activity [2]: 100% | % activity [3]: 110% | % activity [4]: 60% | % activity [5]: 123% | % activity [6]: 90% | % activity [7]: -2% | % activity [8]: 103% | % activity [9]: 75%
B1: MMI-0300 (peptide)
peptide: FAKLAARLYRKALARQLGVAA

% activity [10]: 124% | % activity [11]: 108% | % activity [4]: 35% | % activity [12]: 116% | % activity [13]: 96% | % activity [14]: 100% | % activity [15]: 26% | % activity [16]: 131% | % activity [17]: 97% | % activity [18]: 52% | % activity [19]: 95% | % activity [20]: 119% | % activity [21]: 98% | % activity [22]: 151% | % activity [23]: 119% | % activity [9]: 33% | % activity [24]: 122%
B2: MMI-0400 (peptide)
peptide: KAFAKLAARLYRKALARQLGVAA

Source: patent US20160200782A1 (MOERAE MATRIX, published 2016)
